Reference: the domain aggregation screens of Martell et al. (2025)

Assay: soluble fraction after stress (log2 fold change); higher = more stays soluble; pooled small domains, quantitative proteomics
Details: stress: 50 degC
Procedure, shortened: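 After stress at 50°C, the amount of each protein still soluble was measured. This was done on pooled custom libraries of small protein domains, using high-throughput quantitative proteomics. The figure given is a base-two log fold change and stands for aggregation propensity, with higher values meaning more protein stays in solution.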

Sequence | soluble fraction (log2)
HMQEINLIGVTGNDLERSALVKLLDGEIIKLSVGDNLNGGRVVDISAVTLTYLKSGQSITLKLPK | -1.01
HMTPVKAPLPGVVTKINVSVGQQVKKGENVLVLEAMKMENNIAAEADGTVSGIAVKAGDSVLEGAVLLTI | 0.184
HMIYRTTSVPIDNISTQKFNLQEGWIEMNKNEVEDFIRQKNLELVVTDSNVMLDKFALNGDPNKFKVFKY | -0.094
HMSAHDLQVVLRWIGTDEPMTDQRYRITTEDGRTFEGRTDDAGLTERVASTIPFGRYSIEALD | -0.441
HMATQMSSARRGIATDEMKQVAKDEDVTLDWLLPKIAIGSIIIPSNNVRPQKIHNVGIGKGMKTKVN | 0.116
HMHSRTWTSADGVKTFEGELQSYDAASGKVSVILPNHKRITFKQEKLSADDIAWLEKNGNRP | 0.102
HMREEFIGVLDGKVAIFHGRPERKGPLKEVTAIEVDKLPRQEQADLEKGLVIRTDKEKLQLMEGLAALLD | 0.289
HMSQNTHTIPSREDILGIFRSVNAPLDPQSLGKTLQVHADSMDVLVRRLKAMERDGQLKSDASGVFSLAD | 0.119
HMITQQEFQQKLEALLSRAEAESFHIKKEEAESFFSGDELTGEQMKLVFDYLLSKKIIVEGYLK | -0.0863
HMADGKWTLTDAGYTFTYSDGRKARGTWEDIDGEWYHFDRNGIMETGWKTVGNIRYHFNQDGSL | -0.185
HMKRIHLSDEEKTDLESLHYSSNDGKQRDRIKAVLLRSEGWTVPMISQALRIHETTVTRYLNDYREGKLKN | 0.00871
HMSSPPNPQLAKRYISYSVDDIARLFGIHRHTVREWIKRGLPVIDQQRPLLVQGADLAEFLRKRRA | -0.719
HMAKSMRHLIVPSRETSLWRDKLSTNGWLSKGYGIHNLDDYRGIPLNETAPKIIEGLEITELEPIS | 0.0863
HMRPRWTEQEVERAKAIKMIYPNAYRLESSDVFVQVWSKEEILLAHVEVDMFPSLRPGQPVELDEIIG | 0.103
HMGKEYERALQQVTKSEIDSDEKLQQQMDALVNSPRISDKEDAWALLLVKKLRNEGVEWDELPDVLSERVQ | 0.0796
HMTEEELLERLDAVITEYKGKPGALIPVLQLAQGIFGYLPEVALKHIARQLDKPYSEVAGVVSFYSFFTT | 0.0488
HMNVDIVEITKNSSPNQISKVIDIGAIQIVEDLMSFGIMKAIDTPLEDSEIEQLLEKYNLIVDLIE | -2.33
HMAPEQWYVLTSGQLPKGPYRLRHIVAMSKGDNWLVARKGAEQWTPLRHLPEFRQAQEANEYIQAIS | -0.968
HMYFGDADGNKKVDAADALYLKRHLADWEDYRELPQKTNVSWMDEASPANLMILERHIAGWKDYEMLPYT | -0.293
HMQNYTTIIGVIELRLNDISYDNVRKRYHIGRSGITLIMDRYRDSGLSLEDLKQMTPEKVVDLFYPR | -2.3
HMPGIDDAAVEHAERVLAQHIGPMARLLVRRTVPRAANLFDLHRRLGALIPESEPRTAFLSAVVT | 0.0708
HMDGVEVVTKPAGAQIEFAGKSYGPSPVHIPGLVAGSQLILRLPGFQAATVRLRTAPDKSKALEYTLQPA | -0.0828
HMFDPAKQMQRIRKYAGMNRKEFSEWLNIPYRTMTDWELGNRTMPVYLLELIVYKVNHEIANA | 0.186
HMQNNTIAFSKFLQEVDNGRVVQVEIQGNNINGILSDGSKFNTYSPNYPALVEKLSEKNVNIVASPV | 0.0149
HMSQSDLASAIGARVTIRLREASGGFRDIVGVLQRFGSGYGELINSKGEALTFSESEIAIWREVKA | -0.358
HMDPYEYQLELEKLINNATELNKKYNYDPLKDKILAADAVKNSLETYVLQNYIVALENEIKQTLNQYQIL | -0.44
HMLLTHPKRVFTYELIMELVWNEDYTFYSKKAVSNHMSNLRKKLKVTPDALDYIKNIVGVGYKFEA | -0.759
HMAIDVQELARTRLRSLRTTLGYSLDELAARTHLSPSTISRLETGKRSLSLDVVVPLAQALHVSLDVLFEA | -2.68

Sequence | soluble fraction (log2)
HMSYANVEWRDFLNSLDEKYRIVVILYYVQGFKTREIAEILQINQSTVRGRLAKAREKLEQQYN | -1.46
HMTESLVITVDPALHGLRLDRGLADALPDRSRSEVQRWIKEGRVQLHGAPAKPSLKLAAGDIVTIALPEE | 0.393
HMGSTYGISRVDNETSRTHGWLVTIQRRGVIYRKHFSDGVFGGKQRSFAAAKEYRDEVIAAHP | -0.672
HMDGTEVTTEPPGAQVEYEGKQFGPTPARIPGLVAGKSLHITLPGYLEVKPKIKAVPKDGEPLSFTLTAI | 0.0823
HMAWIGEHTVTSEDTLSHIALKFYGHATPPYYKLIYEANKAIIGDNMNIIVPGQVLRIPALPEEL | -0.345
HMDLLIFSPSLGQHVRDLKRVIDRLHQHGIPVRWQKAKLLREEIEYIGWTWKSGGLIDPTNV | -0.31
HMNNQKATAVKVASGIVNLRSGPATSYETLDTVATGETLSVLAEKDGWFQVSRAGRTGWVAGWVVDVIRE | -0.0645
HMIANNFDEFVEKVSEAERKALNMPAGQEMTQKLLEMKLAANPNLTPEEWQRTKSEFMTFLFAVFVRE | -0.842
HMEVAPEKVLEALNELPEIYKIVLNLYAVENMSHKEIAKKLGISLGSSKSRLSRGRVMLNTLLNR | -1.42
HMDLTIEQTTVLGKRLFSNALNSLGKKQRNIKKDAIESLLKRMNLKDMDQLYESIGIGDKSPLLMAQILL | -0.0296
HMSPEWTPAEQDAIDKASEGEYGEALQRVLSGDYEPMDIPDALWGVQQVADKDTYSSIQKKIADIGN | 0.42
HMINEDMTQSDRMELWGRLIDVVEDWLAEKGITEEDIPNEEREGVEDAAIIFGDDYDYLADRFSEVIGISR | -1.18
HMEEKVEVPNLSGKTYQQAKALLESYGLVAAKGGEEESEEPVGKVSRWSSAGKSVKKGTTITVWISGGI | -0.0709
HMAIEGIFEKYQRRSDQLIPILQDVQKEFGYIAPESVRHISRYLRISENQIFGVSSFYAQFRFT | -0.292
HMNLESNQYVIDISDSQVINKDEFETILNQNKTKDIVIKSNNNVTFTFEKGSMIGAEGKDNYDFSSQVNY | -0.0368
HMITFRINQQSQVGLRLDKFIVQQMPDYSRTRIQSWIKTKNILVNGEGKKSGYALEFDDLVEVTIPE | -2.04
HMNSNIIKTINDELSIRKGKYGPYIMYKTKKMKRPKFKSIGDNTPDEFLADKGSISEIILWIN | -0.444
HMVLVSNYGEVVRKARERKGLDHGSLAMKISEKKSIITSVESGNMKPNEKLIKKLENFLNINLM | -1.33
HMIGELVVEDLAAASEINVDTIRYYQRLGLLEPPRRRGRRAVYDHTHLERLAEIRRLAGAGFTLAQIGRLK | -2.53
HMNATLSSSYPTSVVTDGEIYKLTFGLNGKYNGQEQITVKPHGDSNIYDSGGLRAYQNTQSNNVVTLN | 0.1
HMHLNVYRDEDEAMLAFKDHLIGTHQPIRVRVEKALPDGTMGHKIVDTTIGRIVFNHNIPQD | -0.189
HMSAEKPVKSELFYKSMLNSFEQAVRFMIANGILEDFKSRIVAINNETNHQNWFNKQEFNAIIERF | -0.449
HMEGLEKDDGGYYFEKDNGERARNEWVYVEYEGKGYWYYMTDYGYPLRSAITPDGYKVNSNGHWIDEGN | -0.825
HMNNDIDRVFAELTVLSQKKGYLVFDDIEKGTEDLSVNEVDWLTNRLLTSGVEIFDDVPDTIK | -0.205
HMNKVQTFIIEKHIKEVFEHTNRTYYRSGQYYFQTRDEFSMALKRFLKDREPNKKNWIDSIINRA | -0.298
HMTSRIHDYWTSPGQPGYAKIGWGTAGDFRRAKALIGEKIAANSPEDMRYLNQIIAQWHFDALGYWPGDH | -2.49
HMPQKIVIQKGVVIKKRERSDAWQIYITVKGKKPIRKSANTDNVEKAKQMALTLFAEKNYKVENNLPIQ | -1.18
